Assay results: article PMC7759300 (The Journal of Cell Biology, 2020)

B1: GFP-SAS-6-Strep (natural protein)
chain: MSQVLFHQLVPLQVKCKDCEERRVSIRMSIELQSVSNPVHRKDLVIRLTDDTDPFFLYNLVISEEDFQSLKFQQGLLVDFLAFPQKFIDLLQQCTQEHAKEIPRFLLQLVSPAAILDNSPAFLNVVETNPFKHLTHLSLKLLPGNDVEIKKFLAGCLKCSKEEKLSLMQSLDDATKQLDFTRKTLAEKKQELDKLRNEWASHTAALTNKHSQELTNEKEKALQAQVQYQQQHEQQKKDLEILHQQNIHQLQNRLSELEAANKDLTERKYKGDSTIRELKAKLSGVEEELQRTKQEVLSLRRENSTLDVECHEKEKHVNQLQTKVAVLEQEIKDKDQLVLRTKEAFDTIQEQKVVLEENGEKNQVQLGKLEATIKSLSAELLKANEIIKKLQGDLKTLMGKLKLKNTVTIQQEKLLAEKEEKLQKEQKELQDVGQSLRIKEQEVCKLQEQLEATVKKLEESKQLLKNNEKLITWLNKELNENQLVRKQDVLGPSTTPPAHSSSNTIRSGISPNLNVVDGRLTYPTCGIGYPVSSAFAFQNTFPHSISAKNTSHPGSGTKVQFNLQFTKPNASLGDVQSGATISMPCSTDKENGENVGLESKYLKKREDSIPLRGLSQNLFSNSDHQRDGTLGALHTSSKPTALPSASSAYFPGQLPNS

What was measured:
SAS-6 [1] = target: SAS-6 (UniProt Q6UVJ0); assay: GFP-Trap co-IP, SAS-6 blot; conditions: reference: wild type; sites S325
SAS-6 [2] = target: SAS-6 (UniProt Q6UVJ0); assay: GFP-Trap co-IP, SAS-6 blot; conditions: reference: wild type; sites S325; remark: listed apart in the source
Strep-NEDD1 = Strep-NEDD1 (human, UniProt Q8NHV4 1-660); assay: pull-down
Strep-NEDD1, sequence (Q8NHV4 whole entry): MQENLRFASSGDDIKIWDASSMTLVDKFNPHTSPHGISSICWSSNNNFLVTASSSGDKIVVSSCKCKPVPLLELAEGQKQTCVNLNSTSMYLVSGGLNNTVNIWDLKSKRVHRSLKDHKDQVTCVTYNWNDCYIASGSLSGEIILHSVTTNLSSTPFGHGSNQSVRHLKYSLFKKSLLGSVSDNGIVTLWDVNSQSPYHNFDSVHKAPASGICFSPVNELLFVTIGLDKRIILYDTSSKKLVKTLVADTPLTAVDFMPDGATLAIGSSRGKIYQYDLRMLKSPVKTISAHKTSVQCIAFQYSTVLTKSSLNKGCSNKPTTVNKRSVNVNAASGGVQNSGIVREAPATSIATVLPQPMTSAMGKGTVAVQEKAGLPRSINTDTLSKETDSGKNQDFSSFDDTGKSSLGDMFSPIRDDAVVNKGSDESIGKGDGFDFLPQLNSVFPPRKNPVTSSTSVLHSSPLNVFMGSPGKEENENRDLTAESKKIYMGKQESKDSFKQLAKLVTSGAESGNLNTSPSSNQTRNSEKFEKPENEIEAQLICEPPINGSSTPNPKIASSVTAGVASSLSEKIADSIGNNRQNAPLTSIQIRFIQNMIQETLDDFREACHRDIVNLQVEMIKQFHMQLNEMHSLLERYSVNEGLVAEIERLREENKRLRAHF

Row | Molecule | binding against the reference (SAS-6 [1]) | binding against the reference (SAS-6 [2]) | binding result (Strep-NEDD1)
1 | NEDD1 (from UniProt Q8NHV4) S325A | weaker | weaker | –
2 | B1 | – | – | binds
